The values below come from the DeepSol protein solubility set.

The nature of this series: soluble on expression in E. coli; label from the status in PepcDB or PDB records.
On to “MNEILKCIGCGAPLQSENKDAPGYVPEHNMFREDVICRRCFRLKNYNEVQDVGMESEDFLNLLTGLSEKKGIIVNVVDVFDFEGSFINAIQRIVGNKKIILVANKIDLLPKQINHRRVKEWLRKSARKYGLEAEDVVLISANKGWGIDELLQSINHVRNKDDVYIVGTTNVGKSTLINKLIEQSVGEKDVVTTSRFPGTTLDMIDIPLDEKSFMFDTPGIIQSHQMTNYVSENELKIIIPKNEIKQRVYQLNEKQTLFFGGLARIDYVSGGKRPLVCFFSNDLNIHRTKTEKANDLWKSQLGALLSPPQDAQQFNLNDVKAVRLETGKTKRDIMISGLGFITIDAGAKVIVRVPKHVDVILRNSILLEHHHHHH”, for which the “soluble on expression in E. coli” value is reported as “soluble”. On to “MNEIQKYIAANEPKIMEDLFSLIRIPSISALPEHHDDMLACAQRWAQLLLEAGVDEALVMPSKGNPIVFAQKIVDPNAKTVLVYAHYDVMPAEPLELWKSQPFEPEVRDGYIWARGADDDKGQSFIQVKAFEYLVKNELLKNNVKFIFEGEEEIGSPSLEAFCEEHKELLKADVILVSDTSMLGAELPSLTTGLRGLAYWEIEVTGPNRDLHSGHFGGAVANPINVLCEIISKVTDKDGRITVPGFYDDVEEVPQAEREMIAHIPFDEKKYKEAIGVKELFGEKGYSTLERNSCRPSFDVCGIWGGYTGEGSKTVLPSKAYAKVSCRLVAHQDHHKISQMFADYILQMAPDTVQVKVTPMHGGQGYVCPISLPAYQAAEKGFEIAFGKKPLAVRRGGSIPIISTFEQVLGTKTVLMGFGLESDAIHSPNENFSLDIFRKGIEAVIEFHQEYAKR”, for which the “soluble on expression in E. coli” value is “not soluble”.

Consider “MNELQAYHLSRNQFCPNLFFLAMNNVAQTDTPQQYDLRILRALRRITRSIALHSRQLAAVSHITAPQLMCLRAVIAGGPMTATAISREIHVSPSTVVGILDRLEDKGLIRRERGREDRRIVFVTATEGGRTLAAEAPSPLQKHLADGLNALPELEQATITLALERIVALMEQEGHAVEAAGEGSPPILEMPTGGAPPESGLVV”, for which the “soluble on expression in E. coli” value is “not soluble”. The entry for “MNEQRLSMRLERVATHVPAGARLADIGSDHGYLPVALLNRGAVSAAVAGEVALTPFYAAERTVRENDLDQQISVRLADGLAAIEPTDRITAISLCGMGGETIRDILESGKARLSGQERLILQPNGGEQPLRVWLMEHNYRILDEEVLRENRFDYEIIVAERTGPMIYTAEQLYFGPIQMQTRSPAFLLKWQRLLGKKHKALSNFARARKAVPEEKMQDLAQQIRWITALLN” is “not soluble”. In the case of “MNFGACPADIEDDEVVASFNVYASPALVNQAHIFQYPLRRRQRPYEATEIKLFSTSGTVAEESEALLAQGKGSSVLQPGSRLTMKCSLDTFGSPSFRPLPEFAPDMLGQMELQRHHTFNYTLQSQPFLPQSNYVLGYITLEGIHLTPVSTIQQFTPALSIPESSTGAVRVTEAFCSQSNSTAMPGFAAADRIQRELRRQRSRVLNGEADTAQEIQFFRDDSVESSAMRSRLCSSTLERITGNLNAASEPAEVENSLFPPEILQSGGISGGDEAHPSMIIHRFANCKSVAEQTNQLLQRCHILTLQRLQNIVVPYTSNEVVKTMSTVPEAQLVEALKSCAVWLHGVWVSRYCDQFRGSVAALREVILARFYQSEDGSVARADFNAWITTSAARRSIKEILATVAVLNTDEPDPSKRRWRLKYVPEDRAAREANLRDFKAKFAAEEASQHEAWRRRCAQVMAHIPYINAGRPVSQLCLRPRSTPPTTGTAASATLPYGSPNAAQSIAPSVSSMTSGHSGSGVTASASPFSSPAPGADLGFKDADIAPIRHYIRELFAEHGVINKQRVKDLVIKAQEARYPHATKAMLSTALQQCLDKFTDATWILKSAGEPIVDYYRPAILYVVLELRQFEMAALMKRLEEVVRARGLTSPPESAALRGRIGGASGTLEAVVQRVVAEVAEFKAGGRLWHIKGGNLMNE” it was “not soluble”; in that of “MNFIYPAVIAAVQEGEKAWGTTHPNPPVGAVVLSSNGSIVGRGHTQPPGGSHAEIMALRQAGENTKGGTLVVTLEPCNHWGRTGPCSHAISESGIEHVVYLMQDTGSLEKGGAEYLRRQGLKVTFLGLSVAALIPWQASKDRGWPYVVGKTAHTLDGFVAAEDHSSKWITGSASRDYANRQRRHFDAIIVGTGTVKADNPALTARKDDGTLLPHQPLKVVIGTSKISEGTQLARSGFVQFSTIEEALVQLWDRGVRYVLVEGGPHLLHGFLTSGNLDQLHSYSAPMLLTRGVSLLQEEEKKSAESANTTIASALRGSPQSISMLGDDILQVINI”, “not soluble”.

For the sequence “MNGKARISIAIDGPAGAGKSTIAKIISKTLNILYLDTGAMYRAVALKAIRESVDTLNREQMSKLVENIDIKIAHSEDIQRIFLDGEDVTDFIRTPEVSIGASNVATVPAVRLKMVELQREIAKKNSVVMDGRDIGTYVLPDATLKFFLTASVEARAIRRYNELLSKGITQITLEDVKKDIEYRDKNDSNREFAPLSKAPDAIEIDTTDLTIEQVVNKIMEYAKDYVC”, the “soluble on expression in E. coli” value is on record as “soluble”.

With “MNGKPDLVITDSQVFKQVNAKLDRSVPLTSFSILMARYKGDLDKFYSGAKAIKNLKAGDKVLIAEACTHHQLKGDIAREKLPTWLEETCPGIIVHNCSGKDFPKNLNEYALVIHCGGCMFNKAEIMNRIGICDDALVPITNFGTSIAEINNILDRVMEPLKLEHHHHHH”, the “soluble on expression in E. coli” value is “not soluble”. The entry for “MNGRSLIFSILFVFSELKCDDTDENDQHGTIYQFQAKNIDGKMVSMEKYRDKVVLFTNVASYCGYTDSNYNAFKELDGIYREKGFRVAAFPCNQFEKQEPETEGKILDFVKSSYTYAPDMYSKIEVNGQNTHPLWKFLKKERGSSLSADIPWNFSKFLVDKNGHVVGRYSHSVNPIDLEEEISRLLNS” is “not soluble”; for “MNGTKQQRRRGDTRQRIQDVALGLFAEQGYEKTSLREIAESLDVTKAALYYHFKTKEEILVSIFEDLSRPLEDLIEWGREQPHTLETKQEIIRRYSEALAGAAPLFRFMQENQATVRDLRIGELFKHRMFGLRDILMDPEADLVDQVRCISALFTLHAGMFVLRDLEGDPEEQRAAVLEVATDLITQAHRGAAGA” it is “not soluble”.

Turning to “MNGTLDHPDQPDLDAIKMFVGQVPRTWSEKDLRELFEQYGAVYEINVLRDRSQNPPQSKGCCFVTFYTRKAALEAQNALHNMKVLPGMHHPIQMKPADSEKNNAVEDRKLFIGMISKKCTENDIRVMFSSFGQIEECRILRGPDGLSRGCAFVTFTTRAMAQTAIKAMHQAQTMEGCSSPMVVKFADTQKDKEQKRMAQQLQQQMQQISAASVWGNLAGLNTLGPQYLALLQQTASSGNLNTLSSLHPMGGLNAMQLQNLAALAAAASAAQNTPSGTNALTTSSSPLSVLTSSGSSPSSSSSNSVNPIASLGALQTLAGATAGLNVGSLAGMAALNGGLGSSGLSNGTGSTMEALTQAYSGIQQYAAAALPTLYNQNLLTQQSIGAAGSQKEGPEGANLFIYHLPQEFGDQDLLQMFMPFGNVVSAKVFIDKQTNLSKCFGFVSYDNPVSAQAAIQSMNGFQIGMKRLKVQLKRSKNDSKPY”, the “soluble on expression in E. coli” value is reported as “soluble”. In the case of “MNHLKEVYIDIRDEIFDALDAASLVDVEPLELESQLKDSVNILIEKKQLQISSLKRLDLVKALLDELKGLGPLQALVDNDDISDIMINGPSDIFIEINGKVEKSPIQFVNEKQLNTIAKRIASNVGRRIDESKPLCDARLEDGSR” it was “not soluble”; in that of “MNIEALERLRGWMRAKGFSRFYVVRPENFAWLVGGANTLGMGESVAYLEVGEEVVLHTSAIEHPRMVEEEAPGLPARVHPWYAFPPPPGPNDLEHDLTPLRLVLSREAQGAFTHLGREAAMAVGEVVRSARPEWTEYALAGALAEALWGRGLRPLLLLVAVDERLFRYRHPLPKGKPLGRAFMAVVCAERRGLVANLTRMASFGHGEVEARYRKVLEVEAAALSASRPGATLGEVFAALQGAYARVGFPRAWGEHHQGGVGGYRSREVVATPGHPLVLEAGMVLAWNPSLSGAKVEDTFLLTEGGLLNLTEDPFWPAVEVEGRRRPDLWRGGG”, “soluble”; in that of “MNIFNNVKKAEIHVHLEATITPSICKKFADRNNHEIPDDFFGSKYAYEWDDFYDFLKKYDIVTSVIHTPEDYYELTYEYLKECAANNVIYMEAMISSTHAKNKGMTYHSFIEGVYEASKKAEEDFGIVARYIMNGIRHLGPESVQNTAEEVLKNPHPCLVGFGLAGDELHFPPNLFVKTFDMLKEANFPITVHAGEWDGPENIRNAINLLHPTRLGHGVRSIEDPELVKEIIDKDIILETCPTSNIATKIYEDYESHPVKTLFNQGVKVTVNSDDPPFFMQLFQ”, “soluble”. As to “MNIIWQLGTCNIRQVLAEVPEPKPPYTTLASVFKNLERKHYIKPFREGKTYHYRICISREEYATRTMHRMVDNYFTGSYKHLVQFFAAGSDISVKDLREVIDMIEKGEESE”, the “soluble on expression in E. coli” value is on record as “not soluble”. For the sequence “MNIKLSFISIAFLSLSFNVAANEFEKSQEHYKSVTDLKNKIEILELEKKITELSGEIRNARMPKIDKSAPVLSPQPVVKSSEELQKSIEHIEEELKVELAYLVNNGQQKKYTFNLNGKLITLVNGDFVNGWKFIEDQNKIQFSKGNKVIDVN”, the “soluble on expression in E. coli” value was “not soluble”. Regarding “MNIKRITTEADLHEALKIRRGVFIEEQHVSEADEFDEFDTLQEQCQHILVYHENQPVGTGRARIVGHTAKLERICILKPYRKYGLGKIIVSGLEEIMKEKGLTSYKLHGQTQAAGFYQKLGYQISSQEFMEDGIPHVLMTKEISRNITLEHHHHHH”, the “soluble on expression in E. coli” value is listed as “not soluble”. In the case of “MNIPKVQFNPKVHKNIGIEIIELSDIYKRSDDDLENFIAKPHRIKFHNILYITQGRGTHFIDFNTYTTQAGSVVFINKNQVHAFDLINQPQGKLIIFTDEYLDTILTTIKTPLSAHNYLLTSYSPTFSLSKKIRNTCDVLLTEIEKEYQVKDPNLNFLNLIFSAVLTKLSSERTRSFEQYLSESRTEKFMTFIELLEVNYTNTRDAKIYADMLHMTYKSLNQICKLATKQTTKQLIDAYIILEAKRKLSIENIRVQQLADELGFDEVTNFVKYFKKNTLLTPSQFKKLNQG” it was “not soluble”. In the case of “MNIQEKFKAIRKQRKLSLRDLANVAGSTSSISDFEKGKTNLSNDVLLQLLGFMVVEINEIFEWSAFQDAEFLELMTQVENALQTQDITVLIQKRETLQEFFVAKNHYIYHIISLVLDVIISKLQEKEPTPEIISELTDYFFSLDYWTNLDVGLLGNIVHHFTTETLVLFTDSILKNTPNQLRNNLDRIKIDTVINCLSVLLARREKNASQELLQLLSRKQFPTYFTYEKLCISEFKAIYMYIWCDKEEADNIHQTILKTVSLLFTKDEANKWDDYFKEIISSADIKK” it was “not soluble”; in that of “MNITKIISKTFDSRLKQIDLYASQASEIQHRVLSRLVNQAAQTEWGKKYDYASIRSYEDFRNRLPIQTYEEIKPYVERLRAGEQNLLWPSEIRWFAKSSGTTNDKSKFLPVSKEALEDIHYRGGKDAAALYFRINPDSHFFSGKGLILGGSHSPNLNSNHSLVGDLSAILIQNVNPLINFIRVPSKKIALMSEWETKIEAIANSTIPVNVTSLSGVPSWMLVLIKRILEKTGKQTLEEVWPNLEVFFHGGVAFTPYREQYKQVIHSKMMHYVETYNASEGYFGTQNDLSDPAMLLMIDYGIFYEFVPLEEVDKENPRAYCLEEVELNKNYAMVISTSCGLWRYMIGDTVKFTNKNPYKFVITGRTKHFINAFGEELIVDNAEKGLAKACAETGAQVCEYSAAPVFMDEHAKCRHQWLIEFAKMPDSVEKFAAILDATLKEVNSDYEAKRWKDIALQPLEVIVARPGLFHDWLARKGKLGGQHKVPRLSNTREYIESMLVLNNELEHHHHHH”, “not soluble”.
